Results taken from US20100086958A1, “NOVEL ENZYME” (priority 2008, published 2010).

Tests used:
Assay type in all cases: biochemical
[1] = Assay of enzyme activity (specific activity, U/mg); details: unit = μmol formate oxidized per min in the presence of co-factor; This work
Procedure: The reaction was initiated by addition of NAD^+. The total volume of the reaction mixture was 1 mL. Specific activity (U/mg enzyme) was defined as number of μmols of product formed per mg enzyme per minute.

[2] = Cytochrome P450 BM3/BspFDH2 coupled oxidation of 1-propylbenzene with NADPH regeneration
Procedure: (Li, Q.-S. et al., FEBS Letters 508, 249-252 (2001)) In this oxygen C—H reaction (FIG. 4a), one oxygen atom from an atmospheric O2 molecule is reduced to water by NADPH leaving the other ready for delivery to substrate. All P450's are NADPH-dependent. NADP^+ thus formed is then regenerated to NADPH by the action of BspFDH2 using formate. The overall atomic transformation is therefore the splitting of O2- with a hydride ion from formate using NADP^+ as a hydride shuttle.
200 μL of 1-propylbenzene (1a above, 1M in DMSO), sodium formate (3 M, 2 mL) and bovine serum albumin (100 mg/mL, 1 mL) were added in potassium phosphate buffer (100 mM, pH 7.6, 2 mL) and the reaction mixture was shaken for 3 min. NADP^+ (10 mM, 1 mL) and BspFDH2 (17 mg/mL, 500 μL) were added and the reaction shaken for 30 minutes at room temperature. After 30 minutes, wild type cytochrome P450-BM3 (WT P450 BM3, 2.4 mg/mL, 300 μL) was added and the reaction shaken at room temperature. The reaction was monitored by GC-MS (Rt˜3.2 minutes). After 15 hr, the reaction mixture was extracted by DCM (3×1 mL) and the combined organic phase was dried and the solvent removed to afford 1-phenylpropan-1-ol (2a above, >99% conversion based on GC chromatogram). […]

[3] = Steady state kinetics for NAD^+ (FDH-catalysed formate oxidation); details: cofactor NAD^+, 0.18M formate
Procedure: (§1) BcenFDH1 (Bsp184FDH) and BspFDH2 (Bsp383FDH) catalyzed oxidation of formate to CO2 was monitored by UV/Vis spectrophotometry in a 96-well plate format. A series of eight solutions of formate (0-200 mM) were prepared by successive dilutions of a stock solution of 0.5 M sodium formate in 0.1 M sodium phosphate buffer, pH 7.0. From this series, 170 μL was transferred into wells of the 96-well plate. 10 μL of the FDHs from a stock solution (64.1 μM for BcenFDH1 (Bsp184FDH) and 78.0 μM for BspFDH2 (Bsp383FDH)) were added into each well and equilibrated for 3 min at 30° C. The reaction was initiated by addition of 20 μL of NAD^+ or NADP^+ solution from a freshly prepared stock (10 mM) using an 8-channel pipette. The plate was then immediately placed into the plate reader. The plate was shaken for 5 s to ensure thorough mixing, and then time-based measurements were recorded every 15 s for 10 min. The rate of formate oxidation was calculated using an extinction coefficient of 3.38 mM^−1 (for 200 μL), which was determined using NADH standards. Km and Vmax values were obtained by non-linear regression to the Michaelis-Menten equation (Eq.1 below) using Origin v7 (Microcal Software Inc.).
Similar procedure were used for determination of Michaelis-Menten parameters for NAD^+ and NADP^+. A series of eight solutions of cofactor (0-75 mM) were prepared by successive dilutions of stock solutions. […] of sodium formate solutions (180 mM in well) were transferred into wells of the 96-well plate. 10 μL of the FDHs from a stock solution (64.1 μM for BcenFDH1 (Bsp184FDH) and 78.0 μM for BspFDH2 (Bsp383FDH)) were added into each well and equilibrated for 3 min at 30° C. The reaction was initiated by addition of 20 μL of NAD^+ or NADP^+ solutions using an 8-channel pipette. The plate was then immediately placed into the plate reader. The plate was shaken for 5 s to ensure thorough mixing, and then time-based measurements were recorded every 15 s for 10 min. The rate of formate oxidation was calculated using an extinction coefficient of 3.38 mM^−1 (for 200 μL), which was determined using NADH standards. Km and Vmax values were obtained by non-linear regression to the Michaelis-Menten equation as before.

[4] = Steady state kinetics for formate oxidation
Procedure: as §1

B1: Bsp383FDH: wild type FDH from Burkholderia sp 383, Seq ID No: 1, C-terminal His-tagged (protein, listed as Burkholderia sp.)
chain: MATVLCVLYPDPVDGYPPRYVRDAIPVITHYADGQTAPTPAGPPGFQPGELVGCVSGALGLRGYMEAHGHTLIVTSDKDSPDSEFERRLPEADVVISQPFWPAYLTAERIARAPKLKLALTAGIGSDHVDLDAAARARITVAEVTGSNSISVAEHVVMTTLALVRNYLPSHAIAQQGGWNIADCVSRSYDVEGMHFGTVGAGRIGLAVLRRLKPFGLQLHYTQRHRLDASIEQELGLTYHADAASLASAVDIVNLQIPLYPSTEHLFDAAMIARMKRGAYLINTARAKLVDRDAVVNALTSGHLAGYGGDVWFPQPAPADHPWRTMPFNGMTPHISGTSLSAQARYAAGTLEILQCWFDGKPIRNEYLIVDGGTLAGTGAQSYRLT
modifications: C-terminal His tag
[1]
  activity with NADP^+: 8.64 U/mg
  activity with NAD^+: 1.09 U/mg
[2]; coupled with cytochrome P450 BM-3
  reaction complete within: ≤ 2 h
[2]; coupled with cytochrome P450 BM-3, NADPH regeneration from formate, GC
  conversion of propylbenzene to 1-phenyl-1-propanol: > 99%
[3]
  Km: 7.6 ± 2.1 mM
  kcat NAD^+: 0.817 ± 0.13 s⁻¹
[4]; formate oxidation with NADP^+
  kcat: 6.1148 ± 0.4473 s⁻¹
[4]; formate oxidation with NAD^+
  Km: 50.1 ± 2.69 mM
  kcat: 0.772 ± 0.0158 s⁻¹
